Assay results taken from patent US20140094592A1.

Tests used:
[1] = biological target: gonadotropin releasing hormone receptor; test: competition with I125-d-Lys6-GnRH on pituitary membranes; competitor at 28.24 nM
[2] = biological target: gonadotropin releasing hormone receptor; test: competition with I125-d-Lys6-GnRH on pituitary membranes; competitor at 70.59 nM
[3] = biological target: gonadotropin releasing hormone receptor; test: competition with I125-d-Lys6-GnRH on pituitary membranes; competitor at 176.47 nM
[4] = biological target: gonadotropin releasing hormone receptor; test: competition with I125-d-Lys6-GnRH on pituitary membranes; competitor at 441.18 nM
[5] = biological target: gonadotropin releasing hormone receptor; test: competition with I125-d-Lys6-GnRH on pituitary membranes; competitor at 1102.94 nM
[6] = biological target: gonadotropin releasing hormone receptor; test: competitive radio-immuno receptor binding assay, pituitary membranes, displacement of I125-d-Lys6-GnRH
[7] = biological target: gonadotropin releasing hormone receptor; test: competition with I125-d-Lys6-GnRH on pituitary membranes; competitor at 29.09 nM
[8] = biological target: gonadotropin releasing hormone receptor; test: competition with I125-d-Lys6-GnRH on pituitary membranes; competitor at 72.73 nM
[9] = biological target: gonadotropin releasing hormone receptor; test: competition with I125-d-Lys6-GnRH on pituitary membranes; competitor at 181.82 nM
[10] = biological target: gonadotropin releasing hormone receptor; test: competition with I125-d-Lys6-GnRH on pituitary membranes; competitor at 454.55 nM
[11] = biological target: gonadotropin releasing hormone receptor; test: competition with I125-d-Lys6-GnRH on pituitary membranes; competitor at 1136.36 nM
[12] = biological target: gonadotropin releasing hormone receptor; test: competition with I125-d-Lys6-GnRH on pituitary membranes; competitor at 32 nM
[13] = biological target: gonadotropin releasing hormone receptor; test: competition with I125-d-Lys6-GnRH on pituitary membranes; competitor at 80 nM
[14] = biological target: gonadotropin releasing hormone receptor; test: competition with I125-d-Lys6-GnRH on pituitary membranes; competitor at 200 nM
[15] = biological target: gonadotropin releasing hormone receptor; test: competition with I125-d-Lys6-GnRH on pituitary membranes; competitor at 500 nM
[16] = biological target: gonadotropin releasing hormone receptor; test: competition with I125-d-Lys6-GnRH on pituitary membranes; competitor at 1250 nM

Molecule	read-out of the competitive receptor binding assay (unit not given) [1]	read-out of the competitive receptor binding assay (unit not given) [2]	read-out of the competitive receptor binding assay (unit not given) [3]	read-out of the competitive receptor binding assay (unit not given) [4]	read-out of the competitive receptor binding assay (unit not given) [5]	IC50 [6] [nM]	read-out of the competitive receptor binding assay (unit not given) [7]	read-out of the competitive receptor binding assay (unit not given) [8]	read-out of the competitive receptor binding assay (unit not given) [9]	read-out of the competitive receptor binding assay (unit not given) [10]	read-out of the competitive receptor binding assay (unit not given) [11]	read-out of the competitive receptor binding assay (unit not given) [12]	read-out of the competitive receptor binding assay (unit not given) [13]	read-out of the competitive receptor binding assay (unit not given) [14]	read-out of the competitive receptor binding assay (unit not given) [15]	read-out of the competitive receptor binding assay (unit not given) [16]
d-lys6-GnRH-GMBS-rPAP (from UniProt P10297 23-285)	75	78.2	49.4	34	9.24	70 to 200										
non-conjugated recombinant PAP (not bound to d-lys6-GnRH-GMBS) (from UniProt P10297 23-285)							91.5	111	96.4	98.7	74.8					
d-lys6-GnRH-GMBS-plant-derived mature PAP (protein, Hp-Glu at position 1 (blocked N-terminus); D-Lys at position 6, carrying the GMBS linker; C-terminal ethyl-amide (Et-NH2) replacing Gly 10; bound through the GMBS linker to d-lys6-GnRH; site of attachment not stated) VNTIIYNVGSTTISKYATFLNDLRNEAKDPSLKCYGIPMLPNTNTNPKYVLVELQGSNKKTITLMLRRNNLYVMGYSDPFETNKCRYHIFNDISGTERQDVETTLCPNANSRVSKNINFDSRYPTLESKAGVKSRSQVQLGIQILDSNIGKISGVMSFTEKTEAEFLLVAIQMVSEAARFKYIENQVKTNFNRAFNPNPKVLNLQETWGKISTAIHDAKNGVLPKPLELVDASGAKWIVLRVDEIKPDVALLNYVGGSCQTT peptide: EHWSYKLRP						70 to 200						65.5	37.5	10.1	3.38	0
